Where “and” joins values, the source holds several entries; their conditions need not be identical. Equal values may be shown once.

Drawing on patent US20120213763A1 (COUNCIL OF SCIENTIFIC AND INDUSTRIAL RESEARCH, published 2012), this text covers Km for one protein.

Data set [1] has as its target T1, PEGylated SK S105C (SEQ ID NO 33).
T1 chain: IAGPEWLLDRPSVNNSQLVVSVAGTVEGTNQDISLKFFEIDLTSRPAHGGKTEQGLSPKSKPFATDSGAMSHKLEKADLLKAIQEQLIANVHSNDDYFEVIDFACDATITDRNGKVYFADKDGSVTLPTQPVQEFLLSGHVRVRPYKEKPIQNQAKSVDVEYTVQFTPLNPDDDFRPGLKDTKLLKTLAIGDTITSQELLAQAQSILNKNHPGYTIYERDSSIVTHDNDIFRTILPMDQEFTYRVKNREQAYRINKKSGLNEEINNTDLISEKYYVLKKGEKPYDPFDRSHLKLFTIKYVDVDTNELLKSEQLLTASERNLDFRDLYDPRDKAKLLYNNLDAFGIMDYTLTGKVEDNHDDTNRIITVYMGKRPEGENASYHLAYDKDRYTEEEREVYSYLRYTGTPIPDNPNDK

In data set [2] the target is T2, bi-pegylated NC 1-414 (SEQ ID NO 491), Cys at N - 1 and at C + 1 position in SK.
T2 chain: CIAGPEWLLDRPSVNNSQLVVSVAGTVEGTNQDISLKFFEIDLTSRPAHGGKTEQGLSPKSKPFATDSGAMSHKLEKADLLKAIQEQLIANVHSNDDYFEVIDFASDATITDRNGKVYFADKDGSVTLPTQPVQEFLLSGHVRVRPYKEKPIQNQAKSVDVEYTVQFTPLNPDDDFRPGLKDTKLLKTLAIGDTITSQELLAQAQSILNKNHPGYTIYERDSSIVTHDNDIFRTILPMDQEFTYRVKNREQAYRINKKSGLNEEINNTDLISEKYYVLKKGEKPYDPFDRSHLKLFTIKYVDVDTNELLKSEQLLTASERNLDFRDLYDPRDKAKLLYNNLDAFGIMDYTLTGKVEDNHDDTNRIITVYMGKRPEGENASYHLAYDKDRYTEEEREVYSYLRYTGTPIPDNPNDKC

Data set [3] has as its target T3, PEGylated SK N255C (SEQ ID NO 46).
T3 chain: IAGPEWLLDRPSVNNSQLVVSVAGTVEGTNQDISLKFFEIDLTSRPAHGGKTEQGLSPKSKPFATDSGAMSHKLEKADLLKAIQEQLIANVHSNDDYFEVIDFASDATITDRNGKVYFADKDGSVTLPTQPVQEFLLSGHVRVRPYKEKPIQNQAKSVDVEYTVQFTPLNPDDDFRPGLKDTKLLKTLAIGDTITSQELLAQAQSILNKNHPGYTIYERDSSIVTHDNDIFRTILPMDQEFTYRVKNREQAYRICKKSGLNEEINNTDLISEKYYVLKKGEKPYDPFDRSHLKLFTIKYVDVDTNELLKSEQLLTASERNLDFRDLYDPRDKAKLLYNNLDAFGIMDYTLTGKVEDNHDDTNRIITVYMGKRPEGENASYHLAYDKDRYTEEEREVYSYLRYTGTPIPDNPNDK

For data set [4], the target named is T4, PEGylated SK N-Cys (SEQ ID NO 489), Cys at N - 1 position in SK.
T4 chain: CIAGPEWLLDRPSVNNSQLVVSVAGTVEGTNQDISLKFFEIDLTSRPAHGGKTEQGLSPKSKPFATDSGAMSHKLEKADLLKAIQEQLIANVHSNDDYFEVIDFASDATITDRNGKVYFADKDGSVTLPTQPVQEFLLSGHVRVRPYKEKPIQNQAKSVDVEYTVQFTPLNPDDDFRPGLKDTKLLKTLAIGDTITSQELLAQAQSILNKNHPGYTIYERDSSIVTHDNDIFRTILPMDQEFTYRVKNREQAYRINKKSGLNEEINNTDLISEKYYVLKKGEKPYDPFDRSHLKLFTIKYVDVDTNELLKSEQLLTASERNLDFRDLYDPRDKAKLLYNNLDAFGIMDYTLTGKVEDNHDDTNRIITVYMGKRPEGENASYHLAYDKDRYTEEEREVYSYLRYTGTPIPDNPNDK

The target of data set [5] is T5, PEGylated SK D173C (SEQ ID NO 39).
T5 chain: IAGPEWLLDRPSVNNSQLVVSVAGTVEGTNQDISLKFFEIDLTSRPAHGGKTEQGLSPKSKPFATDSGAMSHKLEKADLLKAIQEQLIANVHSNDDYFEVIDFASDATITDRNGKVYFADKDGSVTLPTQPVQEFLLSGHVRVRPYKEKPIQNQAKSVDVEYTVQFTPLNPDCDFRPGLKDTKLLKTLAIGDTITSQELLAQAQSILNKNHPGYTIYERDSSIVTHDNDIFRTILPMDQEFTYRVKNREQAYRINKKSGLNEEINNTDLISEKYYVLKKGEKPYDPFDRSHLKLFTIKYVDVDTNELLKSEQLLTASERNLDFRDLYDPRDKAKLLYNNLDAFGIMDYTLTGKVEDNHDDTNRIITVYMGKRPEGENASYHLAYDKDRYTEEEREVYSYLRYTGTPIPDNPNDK

The target of data set [6] is PEG Variants of SEQ ID NO 23 (PEGylated Cysteine variants of fibrin domain fusion form of SK).
In data set [7] the target is T6, PEGylated SK L260C (SEQ ID NO 50).
T6 chain: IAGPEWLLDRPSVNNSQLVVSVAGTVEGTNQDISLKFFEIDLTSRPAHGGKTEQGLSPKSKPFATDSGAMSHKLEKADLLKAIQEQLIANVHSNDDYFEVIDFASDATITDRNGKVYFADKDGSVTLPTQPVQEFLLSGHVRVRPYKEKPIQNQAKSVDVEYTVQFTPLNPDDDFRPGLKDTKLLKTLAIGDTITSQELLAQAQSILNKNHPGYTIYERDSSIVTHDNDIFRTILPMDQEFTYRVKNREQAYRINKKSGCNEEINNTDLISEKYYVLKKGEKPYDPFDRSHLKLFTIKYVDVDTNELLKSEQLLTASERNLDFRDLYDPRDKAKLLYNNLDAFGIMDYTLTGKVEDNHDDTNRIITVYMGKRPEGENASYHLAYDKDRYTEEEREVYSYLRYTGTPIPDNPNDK

B1: human plasminogen (HPG) (protein)
chain: KVYLSECKTGNGKNYRGTMSKTKNGITCQKWSSTSPHRPRFSPATHPSEGLEENYCRNPDNDPQGPWCYTTDPEKRYDYCDILECEEECMHCSGENYDGKISKTMSGLECQAWDSQSPHAHGYIPSKFPNKNLKKNYCRNPDRELRPWCFTTDPNKRWELCDIPRCTTPPPSSGPTYQCLKGTGENYRGNVAVTVSGHTCQHWSAQTPHTHNRTPENFPCKNLDENYCRNPDGKRAPWCHTTNSQVRWEYCKIPSCDSSPVSTEQLAPTAPPELTPVVQDCYHGDGQSYRGTSSTTTTGKKCQSWSSMTPHRHQKTPENYPNAGLTMNYCRNPDADKGPWCFTTDPSVRWEYCNLKKCSGTEASVVAPPPVVLLPDVETPSEEDCMFGNGKGYRGKRATTVTGTPCQDWAAQEPHRHSIFTPETNPRAGLEKNYCRNPDGDVGGPWCYTTNPRKLYDYCDVPQCAAPSFDCGKPQVEPKKCPGRVVGGCVAHPHSWPWQVSLRTRFGMHFCGGTLISPEWVLTAAHCLEKSPRPSSYKVILGAHQEVNLEPHVQEIEVSRLFLEPTRKDIALLKLSSPAVITDKVIPACLPSPNYVVADRTECFITGWGETQGTFGAGLLKEAQLPVIENKVCNRYEFLNGRVQSTELCAGHLAGGTDSCQGDSGGPLVCFEKDKYILQGVTSWGLGCARPNKPGVYVRVSRFVTWIEGVMRNN
One may read the Km as the concentration of substrate that gives half-maximal velocity. For the protein B1, the Km in data set [1] is 0.5 µM; in data set [2] it was 0.42 µM; in data set [3], 0.4 µM; in data set [4] it was 0.4 µM; in data set [5], 0.4 µM; in data set [6], 0.24 µM and 0.63 µM. In addition, the Km in data set [7] came out at 0.6 µM.
